One molecule from publication PMC5887453 (Nucleic Acids Research, 2018) can be followed below.

The experiment addresses T1, Pyrococcus horikoshii elongation factor 2 (PhoEF-2), wild type (Pyrococcus horikoshii, UniProt O59521 1-732).
T1 sequence (looked up): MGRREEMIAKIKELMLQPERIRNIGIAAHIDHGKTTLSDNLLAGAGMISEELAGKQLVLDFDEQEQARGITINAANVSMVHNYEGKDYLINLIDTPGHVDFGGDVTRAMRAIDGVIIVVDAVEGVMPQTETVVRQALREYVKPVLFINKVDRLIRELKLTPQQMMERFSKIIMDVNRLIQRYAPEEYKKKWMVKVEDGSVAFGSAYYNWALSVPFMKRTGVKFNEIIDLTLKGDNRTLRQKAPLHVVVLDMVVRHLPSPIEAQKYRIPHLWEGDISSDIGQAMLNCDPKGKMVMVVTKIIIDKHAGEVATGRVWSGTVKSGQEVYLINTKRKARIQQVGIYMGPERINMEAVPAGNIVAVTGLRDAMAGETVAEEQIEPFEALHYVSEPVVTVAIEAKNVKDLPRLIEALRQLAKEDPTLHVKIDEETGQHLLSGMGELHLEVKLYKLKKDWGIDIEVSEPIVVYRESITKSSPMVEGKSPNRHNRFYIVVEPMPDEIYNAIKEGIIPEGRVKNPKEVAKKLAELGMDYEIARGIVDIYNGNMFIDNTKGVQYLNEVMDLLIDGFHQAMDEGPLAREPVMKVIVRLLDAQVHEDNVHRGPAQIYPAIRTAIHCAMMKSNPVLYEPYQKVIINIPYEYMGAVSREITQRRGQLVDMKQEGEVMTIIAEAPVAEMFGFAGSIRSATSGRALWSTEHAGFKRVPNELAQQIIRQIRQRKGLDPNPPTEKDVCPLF
The experiment in a line: crystal structure.

As for EALAGLSALFG [P1C11, peptide of the 11 C-terminal amino acids of P. horikoshii P1 (E98-G108)], the binding result is listed as “binds”.
